Results taken from article PMC7984243, “Mechanistic characterization of UDP‐glucuronic acid 4‐epimerase” (The Febs Journal, 2020).

Legend:
[1] = biological target: T1, BcUGAepi (UDP-glucuronic acid 4-epimerase) (Bacillus cereus group, UniProt Z9OZ01HDE8); test: HPLC of cofactor released from denatured enzyme; format: binding
T1 construct: C-terminal Strep-tag kept; synthetic gene in pET17b; expressed in E. coli Lemo21(DE3); monomer 37003 g/mol

[2] = biological target: UDP-glucuronic acid 4-epimerase from Bacillus cereus HuA2-4 (Bacillus cereus HuA2-4); test: SEC; gel filtration of the isolated protein (HiLoad 16/60 Superdex 200, calibrated with a gel filtration standard mixture); details in the Supporting information
[3] = tested on: BcUGAepi (UDP-glucuronic acid 4-epimerase); conditions: tightly bound cofactor of the isolated enzyme
[4] = tested on: BcUGAepi (UDP-glucuronic acid 4-epimerase); conditions: 1 mM UDP-GlcA; 135 µM enzyme; 100 µM NAD+; pH 7.6; 23 °C
[5] = tested on: O=C(O)[C@H]1O[C@H](OP(=O)(O)OP(=O)(O)OC[C@H]2O[C@@H](n3ccc(=O)[nH]c3=O)[C@H](O)[C@@H]2O)[C@H](O)[C@@H](O)[C@@H]1O; test: purified protein; conditions: forward epimerization, 50 µM NAD+, 50 mM sodium phosphate, 100 mM NaCl, pH 7.6, room temperature (23 °C)
[6] = tested on: O=C(O)[C@H]1O[C@H](OP(=O)(O)OP(=O)(O)OC[C@H]2O[C@@H](n3ccc(=O)[nH]c3=O)[C@H](O)[C@@H]2O)[C@H](O)[C@@H](O)[C@H]1O; test: purified protein; conditions: reverse epimerization, 50 µM NAD+, 50 mM sodium phosphate, 100 mM NaCl, pH 7.6, room temperature (23 °C)
[7] = biological target: Tyr149 (UniProt position 149, TPQSPYGKSKL); test: kinetics; conditions: cited from earlier work
[8] = biological target: Tyr149 (position 149, …); test: kinetics; conditions: 23 °C, 50 mM Na2HPO4, 100 mM NaCl, pH adjusted with NaOH or HCl, Enzyme-NAD+ with saturating UDP-GlcA (1 mM) and 100 µM added NAD+. The kcat profile reports on the enzyme/NAD+/UDP-GlcA complex.

Molecule: NC(=O)C1=CN([C@@H]2O[C@H](COP(=O)(O)OP(=O)(O)OC[C@H]3O[C@@H](n4cnc5c(N)ncnc54)[C@H](O)[C@@H]3O)[C@@H](O)[C@H]2O)C=CC1 [NADH]
- HPLC of cofactor released from denatured enzyme ([1]; minor co-purified reduced form of the bound cofactor): NADH was also present, the content varying slightly

Molecule: UDP-glucuronic acid 4-epimerase from Bacillus cereus HuA2-4 (enzyme)
- stoichiometry N [2]: 2

Molecule: NC(=O)c1ccc[n+]([C@@H]2O[C@H](COP(=O)(O)OP(=O)(O)OC[C@H]3O[C@@H](n4cnc5c(N)ncnc54)[C@H](O)[C@@H]3O)[C@@H](O)[C@H]2O)c1 [NAD^+]
- HPLC of cofactor released from denatured enzyme ([1]; co-purified, tightly bound, one per subunit): we identified the cofactor as NAD, not NADP
- co-purified cofactor [3]: The purified Y149F variant (Fig. S19) contained protein‐bound NAD^+ as the wild‐type enzyme

Molecule: O=C(O)[C@H]1O[C@H](OP(=O)(O)OP(=O)(O)OC[C@H]2O[C@@H](n3ccc(=O)[nH]c3=O)[C@H](O)[C@@H]2O)[C@H](O)[C@@H](O)[C@@H]1O [UDP-GlcA]
- HPLC time course of conversion [4]: the Y149F variant converted UDP‐GlcA into UDP‐GalA without trace formation of side products

Molecule: BcUGAepi (UDP-glucuronic acid 4-epimerase) (Bacillus cereus group)
- Km [5]: 360 ± 20 µM
- kcat [5]: 0.25 ± 0.01 s⁻¹
- Km [6]: 890 ± 130 µM
- kcat [6]: 0.32 ± 0.02 s⁻¹

Molecule: UDP-galactose 4-epimerase (GALE) (Escherichia coli)
- pKa [7]: 6.9

B1: UDP-glucuronic acid 4-epimerase (BcUGAepi) (Bacillus cereus HuA2-4) (protein)
chain: MKILVTGAAGFIGSHLCQALLKNSAYHVVGIDHFIGPTPATLKTGNIQSLELNSRFQFIREDILNTDLSKLLQDIDVVYHLAAIPGVRTSWGKDFQPYVTNNIMVTQQLLEACKHIKLDKFIHISTSSVYGEKSGAVSEDLLPIPLSPYGVTKLSGEHLCHVYHKNFHIPIVILRYFTVYGPRQRPDMAFHRLIKQMLEDKPLTIFGDGTQTRDFTYIDDCIRGTVAALETKKNIIGEVINIGGKEQASILDIISMLEKISGKSATKNFLKSVPGEPKQTWADISKASTLLQYSPTVSLSDGLEAEYDYIKQLYKGDAAWSHPQFEK
- pKa [8]: 5.90 (±0.05)
